Data taken from patent US20220267421A1 (INVOX PHARMA, published 2022).
Substitutions are numbered along the chain they refer to.

T1: human EpCAM-hFc (in-house production) (human, UniProt P16422 24-265, limits assumed)
T1 construct: not shown: human Fc
T1 sequence (looked up): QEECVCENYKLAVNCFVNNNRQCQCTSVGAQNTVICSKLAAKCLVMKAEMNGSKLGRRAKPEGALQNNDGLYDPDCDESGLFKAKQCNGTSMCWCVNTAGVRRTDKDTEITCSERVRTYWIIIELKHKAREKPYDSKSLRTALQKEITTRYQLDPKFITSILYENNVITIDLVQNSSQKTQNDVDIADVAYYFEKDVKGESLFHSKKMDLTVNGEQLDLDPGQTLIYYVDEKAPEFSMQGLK

T2: human CEACAM-5-His-Fc (Sino Biological, 1077-H03H) (human, UniProt P06731 35-685)
T2 construct: not shown: His tag and Fc
T2 sequence (looked up): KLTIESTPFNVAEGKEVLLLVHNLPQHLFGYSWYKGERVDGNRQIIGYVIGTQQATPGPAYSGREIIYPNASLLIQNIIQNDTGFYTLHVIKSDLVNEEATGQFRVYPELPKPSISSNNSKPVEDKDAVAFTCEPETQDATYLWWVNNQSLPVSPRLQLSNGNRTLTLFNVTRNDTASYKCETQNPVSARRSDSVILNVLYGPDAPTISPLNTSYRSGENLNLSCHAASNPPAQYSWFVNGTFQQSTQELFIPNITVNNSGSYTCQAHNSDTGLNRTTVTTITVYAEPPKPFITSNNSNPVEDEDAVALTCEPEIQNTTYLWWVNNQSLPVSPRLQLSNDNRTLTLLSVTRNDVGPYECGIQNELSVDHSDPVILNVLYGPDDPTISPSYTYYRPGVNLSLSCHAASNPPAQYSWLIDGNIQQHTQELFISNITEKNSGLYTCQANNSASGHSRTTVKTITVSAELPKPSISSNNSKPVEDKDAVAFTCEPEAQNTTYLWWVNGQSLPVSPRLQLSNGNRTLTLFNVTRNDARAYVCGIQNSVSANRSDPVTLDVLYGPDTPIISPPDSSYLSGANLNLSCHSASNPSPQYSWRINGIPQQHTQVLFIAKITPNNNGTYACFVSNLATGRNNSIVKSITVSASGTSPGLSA

T3: human E-Cadherin (R&D systems, 8505-EC) (human, UniProt P12830 155-707)
T3 sequence (looked up): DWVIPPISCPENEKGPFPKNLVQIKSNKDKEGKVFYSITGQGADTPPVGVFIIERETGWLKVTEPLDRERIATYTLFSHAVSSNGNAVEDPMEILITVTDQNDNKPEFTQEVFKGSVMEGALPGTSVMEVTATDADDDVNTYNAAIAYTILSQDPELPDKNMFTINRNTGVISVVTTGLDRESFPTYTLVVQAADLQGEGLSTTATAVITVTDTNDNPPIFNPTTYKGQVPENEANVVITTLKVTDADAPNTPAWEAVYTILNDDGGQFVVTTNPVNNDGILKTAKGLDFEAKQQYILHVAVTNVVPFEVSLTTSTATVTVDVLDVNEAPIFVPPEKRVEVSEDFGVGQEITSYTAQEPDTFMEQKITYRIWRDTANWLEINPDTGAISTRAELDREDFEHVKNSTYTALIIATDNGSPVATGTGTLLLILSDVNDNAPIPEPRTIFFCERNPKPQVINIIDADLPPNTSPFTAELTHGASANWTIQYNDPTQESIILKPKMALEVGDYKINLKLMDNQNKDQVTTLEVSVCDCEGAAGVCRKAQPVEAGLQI

B1: G1-AA/FS28-026 (antibody, human IgG1, kappa, L234A L235A, V domains shown)
VH: EVQLLESGGGLVQPGGSLRLSCAASGFTFSNYAMTWVRQAPGKGLEWVSSITPYYSKTDYADSVKGRFTISRDNSKNTLYLQMNSLRAEDTAVYYCARNWYRFDYWGQGTLVTVSS
VL: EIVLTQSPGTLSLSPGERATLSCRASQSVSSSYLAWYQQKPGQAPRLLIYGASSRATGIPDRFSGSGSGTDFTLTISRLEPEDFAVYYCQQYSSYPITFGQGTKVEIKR
notes: IgG1 LALA; also called FS28-026 mAb (in G1-AA format)
B2: G1-AA/FS28-091 (antibody, human IgG1, kappa, L234A L235A, V domains shown)
VH: B1 VH with S30T, T35S, T52K, Y55D, S56G, K57N, D59Y, W100R, Y101W, R102V
VL: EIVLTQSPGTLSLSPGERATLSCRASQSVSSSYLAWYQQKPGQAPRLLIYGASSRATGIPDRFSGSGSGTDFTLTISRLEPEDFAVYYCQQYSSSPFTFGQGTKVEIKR
notes: IgG1 LALA; also called FS28-091 mAb (in G1-AA format)
B3: G1-AA/FS28-024 (antibody, human IgG1, kappa, L234A L235A, V domains shown)
VH: EVQLLESGGGLVQPGGSLRLSCAASGFTLSYSSMSWVRQAPGKGLEWVSFITPSTGYTHYADSVKGRFTISRDNSKNTLYLQMNSLRAEDTAVYYCARRALTFDYWGQGTLVTVSS
VL: EIVLTQSPGTLSLSPGERATLSCRASQSVSSSYLAWYQQKPGQAPRLLIYGASSRATGIPDRFSGSGSGTDFTLTISRLEPEDFAVYYCQQASSYPLTFGQGTKVEIKR
notes: Complete human IgG1 with LALA mutation; also called FS28-024 mAb (in G1-AA format)

Columns and labels:
[1] = target: T4, human MSLN-His-Avi (human, UniProt Q13421 296-598, single biotin (BirA) in the biotinylated form); assay: SPR (Biacore), hMSLN-His-Avi immobilised at 100 RU, mAb injected
T4 construct: Monomeric, made in HEK293-6E; Used both immobilised and in solution; also called hMSLN-His-Avi; biotinylated hMSLN-His-Avi
T4 sequence (Q13421 other isoform, or with tags, fused parts or gaps): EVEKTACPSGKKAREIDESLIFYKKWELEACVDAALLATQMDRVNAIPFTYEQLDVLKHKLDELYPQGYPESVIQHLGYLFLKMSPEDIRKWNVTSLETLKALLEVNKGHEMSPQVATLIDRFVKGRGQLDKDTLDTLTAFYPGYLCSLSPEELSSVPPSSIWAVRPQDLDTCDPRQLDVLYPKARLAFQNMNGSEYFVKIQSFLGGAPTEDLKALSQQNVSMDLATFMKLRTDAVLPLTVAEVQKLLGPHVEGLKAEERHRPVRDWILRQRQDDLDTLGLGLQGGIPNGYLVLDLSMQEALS
Protocol: (§1) Human MSLN-His-Avi was immobilised on flow cell 2 on a CM5 Series S BIAcore sensor chip (GE Healthcare, BR100530) using an amine coupling kit (GE Healthcare, BR10050) to approximately 200 response units (RU). Flow cell 1 was left blank for subtraction. HEK293-6E supernatants or purified proteins were adjusted with HBS-EP+(GE Healthcare) to approximately 50 nM anti-MSLN mAb per sample. Samples were injected over flow cell 1 and 2 for 2.5 min at 30 μl/min and then allowed to dissociate in HBS-EP buffer for 2.5 min. Regeneration was achieved by injecting 10 mM glycine pH 1.5 (GE Healthcare, BR100354) for 30 seconds at a rate of 30 μl/min. Subtracted data (flow cell 2−flow cell 1) were analysed using BIAevaluation 3.2 Software (GE Healthcare).
(§2) For each bin described in 2.1.3, the binding kinetics were determined using the same method as described in section 2.1.2, except that human or cyno MSLN-His-Avi was immobilised at 50 or 100 RU. Clones were tested at a concentration range of 81 nM to 0.33 nM in 3-fold dilutions.

[2] = target: T4, human MSLN-His-Avi; assay: SPR (Biacore), hMSLN-His-Avi immobilised at 50 RU, mAb injected
Protocol: as §1, §2

[3] = target: T1, human EpCAM-hFc (in-house production); assay: ELISA, antigen coated at 1 ug/ml
Protocol: (§3) A similar protocol was used as described in section 1.2.1 in which maxisorp plates were coated with 1 μg/ml of recombinant human MSLN-His-Avi, human CEACAM-5-His-Fc (Sino Biological, 1077-H03H), human E-Cadherin (R&D systems, 8505-EC), human Thrombomodulin (Peprotech, 100-58) or human EpCAM-hFc (in-house production). Binding of the anti-MSLN mAbs, tested at a concentration range of 0.02 to 1000 nM (3-fold dilutions) was detected using anti-human Fab-HRP (Sigma, A0293). Positive controls for the respective molecules included human EpCAM antibody (clone 2G8 from patent no. U.S. Pat. No. 8,236,308 B2) CEACAM-5 antibody (clone hMN15 from patent no. U.S. Pat. No. 8,771,690 B2), human E-Cadherin antibody, mouse IgG2b clone 180215 (R&D systems, MAB1838), human Thrombomodulin antibody, mouse IgG1, clone 501733 (R&D systems, MAB3947). The latter two were detected using goat anti mouse Fc-HRP (Sigma, A9309) as secondary mAb.

[4] = target: T2, human CEACAM-5-His-Fc (Sino Biological, …); assay: ELISA, antigen coated at 1 ug/ml
Protocol: as §3

[5] = target: human Thrombomodulin (Peprotech, 100-58) (human, UniProt P07204 19-515); assay: ELISA, antigen coated at 1 ug/ml
human Thrombomodulin (Peprotech, 100-58), sequence (P07204 19-515 limits assumed): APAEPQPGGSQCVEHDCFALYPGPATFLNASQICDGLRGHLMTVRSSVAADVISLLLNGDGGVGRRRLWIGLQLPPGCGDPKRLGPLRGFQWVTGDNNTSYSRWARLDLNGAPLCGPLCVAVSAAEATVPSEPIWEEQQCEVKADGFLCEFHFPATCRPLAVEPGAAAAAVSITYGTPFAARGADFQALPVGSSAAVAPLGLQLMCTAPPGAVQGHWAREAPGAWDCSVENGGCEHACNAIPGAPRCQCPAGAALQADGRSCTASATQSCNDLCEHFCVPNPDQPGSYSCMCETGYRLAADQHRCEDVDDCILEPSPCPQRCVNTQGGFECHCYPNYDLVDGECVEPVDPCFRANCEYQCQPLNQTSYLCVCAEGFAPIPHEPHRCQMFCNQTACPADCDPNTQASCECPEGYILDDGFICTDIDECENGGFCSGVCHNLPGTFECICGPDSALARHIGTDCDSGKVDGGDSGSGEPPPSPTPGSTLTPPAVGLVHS
Protocol: as §3

[6] = target: T3, human E-Cadherin (R&D systems, 8505-EC); assay: ELISA, antigen coated at 1 ug/ml
Protocol: as §3

Kd [1] [nM]	Kd [2] [nM]	binding result [3]	binding result [4]	binding result [5]	binding result [6]	Binder
0.12	0.21	no binding (tested: 1000 nM)	no binding (tested: 1000 nM)	no binding (tested: 1000 nM)	no binding (tested: 1000 nM)	B1
0.76	1.24	no binding (tested: 1000 nM)	no binding (tested: 1000 nM)	no binding (tested: 1000 nM)	no binding (tested: 1000 nM)	B2
0.23	0.77	no binding (tested: 1000 nM)	no binding (tested: 1000 nM)	no binding (tested: 1000 nM)	no binding (tested: 1000 nM)	B3
